The text below walks through data of patent US20150301046A1 (published 2015).

The target in experiment [1] is T1, CD4 (cell surface receptor molecule on PBMCs) (human, UniProt P01730 26-458).
T1 construct: whole, on cells; also called CD4 receptor molecule
In words: flow cytometry on PBMCs, Fab multimerized on Strep-Tactin PE. The procedure: For staining of a CD4 receptor molecule specific target cell population in a mixture of cells, Strep-Tactin® labeled with phycoerythrine as a fluorescent label (IBA GmbH, Göttingen, Germany) was used as multimerization reagent together with the monomeric CD4 binding Fab-One-STrEP fragment of the variants of the antibody 13B8.2 (that served as receptor binding reagent) as described below. For FACS analysis 5×10⁶ PBMCs were incubated with Fab multimers consisting of 0.2 μg Fab-fragment (comprising binding site B) equipped with the One-STrEP-tag (binding partner C) as receptor binding reagent and 0.75 μg Strep-Tactin® PE (IBA GmbH, Göttingen, Germany) as multimerization reagent using the protocol below. In addition, after FACS separation, the multivalent complexes were disrupted in a portion of each of the stained cells by addition of biotin as described below. […]
For staining and dissociation experiments, 5×10⁶ PBMCs were incubated with the respective anti-CD4 Fab-multimer-Strep-Tactin® PE complexes or with the corresponding Fab-monomers (the latter not complexed with Strep-Tactin® PE). […] As expected from the monomer staining experiments, no remaining Fab monomers could be detected for mutants 2, 3 and 4, whereas substantial residual cell surface bound Fab of the wild-type and mutant 1 variants was observed.
On the technique in general: A flow cytometer gives signals particle by particle.

Experiment [2] addresses T1, CD4 (cell surface receptor molecule on …). Description: flow cytometry on PBMCs, Fab multimerized on Strep-Tactin PE (before the Western blot experiment). The procedure: CD4 Fab-multimers were generated with the different anti-CD4 Fab-mutants listed in Table 1 and further specified in FIG. 2 and Strep-Tactin® PE (IBA GmbH, Göttingen, Germany). PBMCs were incubated with the different CD4 Fab-multimers and consistent cell staining in each sample was verified by flow cytometry (solid line compared to the tinted histogram representing unstained cells). Then, cells were treated with D-biotin and subsequently washed. Finally, washed cells were lysed, and the soluble (S) and insoluble (I) fractions were analyzed for remaining Fab-monomers using highly specific anti-Strep-Tag® antibodies (StrepMAB-Classic Horse Radish Peroxidase (HRP) conjugate; IBA GmbH, Göttingen, Germany). To control application of consistent amounts of insoluble cell material, β-actin was detected simultaneously with a primary antibody against β-actin from rabbit (Santa Cruz Biotechnology Inc., Santa Cruz, USA) and a secondary antibody against rabbit Ig (immunoglobulin) conjugated to HRP (Sigma, St. Louis, USA). […]

B1: 13B8.2 Fab fragment (Fab, V domains shown)
VH: QVQLKQSGPGLVQPSQSLSITCTVSGFSLTTFGVHWVRQSPGKGLEWLGVIWRSGITDYNVPFMSRLSITKDNSKSQVFFKLNSLQPDDTAIYYCAKNDPGTGFAYWGQGTLVTVSA
VL: DIQMTQSPASLSASVGETVTFTCRASEMIYSYLAWYQQKQGKSPQLLVHDAKTLAEGVPSRFSGGGSGTQFSLKINTLQPEDFGTYYCQHHYGNPPTFGGGTKLEIKR
notes: Chimeric Fab expressed in the periplasm of E. coli; In the staining it was used as a monomer or multimerized on Strep-Tactin PE; also called CD4 wt (13B8.2); 13B8.2 wildtype (wt) Fab fragment
Regarding B1, the binding result in experiment [1] was “binds”.

B2: mutant 13B8.2 Fab fragment, CD4 mutant 3 (H35A) (Fab, V domains shown)
VH: QVQLKQSGPGLVQPSQSLSITCTVSGFSLTTFGVAWVRQSPGKGLEWLGVIWRSGITDYNVPFMSRLSITKDNSKSQVFFKLNSLQPDDTAIYYCAKNDPGTGFAYWGQGTLVTVSA
VL: DIQMTQSPASLSASVGETVTFTCRASEMIYSYLAWYQQKQGKSPQLLVHDAKTLAEGVPSRFSGGGSGTQFSLKINTLQPEDFGTYYCQHHYGNPPTFGGGTKLEIKR
notes: also called Fab mutant 3; H35-H
Regarding B2, the binding result in experiment [2] was “binds”.

B3: mutant 13B8.2 Fab fragment, CD4 mutant 1 (F100A) (Fab, V domains shown)
VH: QVQLKQSGPGLVQPSQSLSITCTVSGFSLTTFGVHWVRQSPGKGLEWLGVIWRSGITDYNVPFMSRLSITKDNSKSQVFFKLNSLQPDDTAIYYCAKNDPGTGAAYWGQGTLVTVSA
VL: DIQMTQSPASLSASVGETVTFTCRASEMIYSYLAWYQQKQGKSPQLLVHDAKTLAEGVPSRFSGGGSGTQFSLKINTLQPEDFGTYYCQHHYGNPPTFGGGTKLEIKR
notes: also called Fab mutant 1; F100K-H
For the molecule B3, the binding result in experiment [1] is listed as “binds”.

B4: mutant 13B8.2 Fab fragment, CD4 mutant 2 (Y92A) (Fab, V domains shown)
VH: QVQLKQSGPGLVQPSQSLSITCTVSGFSLTTFGVHWVRQSPGKGLEWLGVIWRSGITDYNVPFMSRLSITKDNSKSQVFFKLNSLQPDDTAIYYCAKNDPGTGFAYWGQGTLVTVSA
VL: DIQMTQSPASLSASVGETVTFTCRASEMIYSYLAWYQQKQGKSPQLLVHDAKTLAEGVPSRFSGGGSGTQFSLKINTLQPEDFGTYYCQHHAGNPPTFGGGTKLEIKR
notes: also called Fab mutant 2; Y92-L
Regarding B4, the binding result in experiment [2] was “binds”.
